Assay results taken from patent publication US20240270871A1 (HUMMINGBIRD BIOSCIENCE PTE, published 2024).
Where two headings read alike, the source gives them in different places.

Tests used:
Assay in all cases: BLI (Octet QK384), IgG captured on anti-human Fc (AHC) biosensors, recombinant human HER3 as analyte, 1:1 global fit, averaged
recombinant human HER3 [1] = target: T1, recombinant human HER3 (human, UniProt P21860 20-643, limits assumed)
Description: (§1) Biosensors were first dipped in wells containing assay buffer for 60 s to obtain baseline readings, and then IgGs (at a concentration of 12.5 nM) were captured for 120 s, followed by PBST wash for 60 s to remove any unbound antibody or non-specifically-bound protein and the second baseline was collected after IgG capture. Kinetic measurements for antigen binding were performed by dipping each of the antibody-coated biosensors into wells containing a single serial diluted concentration of recombinant human HER3 for 120 s, followed by a 120 s dissociation time by transferring the biosensors into assay buffer containing wells. AHC biosensors were regenerated for 5 s×4 times after each kinetic cycle using 10 mM glycine pH 1.7 to remove bound protein and washed with assay buffer before a new kinetic cycle. Six 1:2 serial dilutions of recombinant human HER3 (at concentrations ranging from 500 nM to 16 nM), were used to ensure an ideal concentration range of antigen, and binding signal spanning the dynamic range of the assay. Measurements for all sensors were generated in real time in parallel. Data analysis was preformed using Octet QK384 analysis 9.0 software (Pall ForteBio) according to manufacturer's recommendations for analysing a high-affinity antigen-antibody kinetics. […]

recombinant human HER3 [2] = target: T1, recombinant human HER3; remark: listed apart in the source
Description: as §1

recombinant human HER3 [3] = target: T1, recombinant human HER3; remark: listed apart in the source
Description: as §1

recombinant human HER3 [4] = target: T1, recombinant human HER3; remark: listed apart in the source
Description: as §1

recombinant human HER3 [5] = target: T1, recombinant human HER3; remark: listed apart in the source
Description: as §1

recombinant human HER3 [6] = target: T1, recombinant human HER3; remark: listed apart in the source
Description: as §1

recombinant human HER3 [7] = target: T1, recombinant human HER3; remark: listed apart in the source
Description: as §1

T1 sequence (P21860 20-643 limits assumed): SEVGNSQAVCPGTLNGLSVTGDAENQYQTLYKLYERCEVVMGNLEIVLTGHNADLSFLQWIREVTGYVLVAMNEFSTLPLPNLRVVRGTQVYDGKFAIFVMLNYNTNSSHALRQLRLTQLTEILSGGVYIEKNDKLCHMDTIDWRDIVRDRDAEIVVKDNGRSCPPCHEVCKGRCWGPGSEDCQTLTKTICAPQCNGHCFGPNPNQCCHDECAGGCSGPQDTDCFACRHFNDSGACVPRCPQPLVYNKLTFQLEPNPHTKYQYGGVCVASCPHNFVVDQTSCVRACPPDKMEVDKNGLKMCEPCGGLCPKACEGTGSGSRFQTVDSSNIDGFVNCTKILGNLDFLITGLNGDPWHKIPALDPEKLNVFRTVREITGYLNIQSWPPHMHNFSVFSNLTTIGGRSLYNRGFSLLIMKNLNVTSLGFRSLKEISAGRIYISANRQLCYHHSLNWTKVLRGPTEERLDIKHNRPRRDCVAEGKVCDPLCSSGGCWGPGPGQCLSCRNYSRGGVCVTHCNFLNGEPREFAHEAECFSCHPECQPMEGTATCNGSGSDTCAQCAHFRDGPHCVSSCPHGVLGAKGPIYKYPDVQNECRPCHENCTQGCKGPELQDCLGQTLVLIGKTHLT

Kd (recombinant human HER3 [1]): < 1 pM
Kd (recombinant human HER3 [2]): < 1 pM
Kd (recombinant human HER3 [3]): < 1 pM
Kd (recombinant human HER3 [4]): < 1 pM
Kd (recombinant human HER3 [5]): < 1 pM
Kd (recombinant human HER3 [6]): < 1 pM
Kd (recombinant human HER3 [7]): < 1 pM
B1: 10D1F hIgG1 (antibody, V domains shown)
VH: QVQLQESGPGLVKPSQTLSLTCTVSGYSITSGYSWHWIRQHPGKGLEWIGSIRYSGGTDYNPSLKSLVTISADTSKNQFSLKLSSVTAADTAVYYCARMTTAPWYPFDYWGQGTTVTVSS
VL: DIQMTQSPSSVSASVGDRVTITCKASQIVGSNVAWYQQKPGKAPEPLIYSASYLYSGVPSRFSGSGSGTDFTLTISSLQPEDFATYYCQQYSSHPLTFGQGTKLEIKR
notes: also called 10D1F.A; antibody product of clones 2-1.1, 2-1.2, 2-1.3, 2-1.4, 2-3.12, 2-3.13, 2-3.15
